Assay results as given in patent US20190374629A1.

Legend:
[1] = molecular target: basigin (human) (UniProt P35613); test: SPR, BIAcore T200, basigin amine-coupled on CM5 chip, RH5 as analyte 8-0.0625 µM, global 1:1 fit, 20 °C
[2] = molecular target: basigin (human) (UniProt P35613); test: SPR (BIAcore T200), basigin amine-coupled to a CM5 chip; analyte PfRH5ΔNL lyophilised and resuspended before measurement, two-fold dilutions from a top concentration of 8 µM, global 1:1 fit [lower left panel (lyophilised]
[3] = molecular target: basigin (human) (UniProt P35613); test: SPR (BIAcore T200), basigin amine-coupled to a CM5 chip; analyte PfRH5ΔNLHS1 lyophilised and resuspended before measurement, two-fold dilutions from a top concentration of 8 µM, global 1:1 fit [lower right panel (lyophilised]

Substance	Kd [1]	Kd [2]	Kd [3]
PfRH5ΔNL (from UniProt Q8IFM5 140-526) (ligand)	0.29 µM	0.31 µM	
PfRH5ΔNLHS1 (from UniProt Q8IFM5 140-526) (ligand)	0.41 µM		0.3 µM
